Experimental data taken from article PMC4449185.

Assays:
[1] = pseudovirus neutralization, global sensitivity (≥2 of 6 non-nAbs); conditions: glycan lost
[2] = TZM-bl pseudovirus neutralization ID50; conditions: glycan lost
[3] = pseudovirus neutralization (S4 Table); conditions: glycan lost; control: JR-FL parent

ADA Env: N197D
other: neutralisation sensitivity ([1]; control: ADA parent): no change

JR-CSF Env: N197D
other: neutralisation sensitivity ([2]; control: JR-CSF parent): increases
other: neutralisation sensitivity ([1]; control: JR-CSF parent): no change

JR-FL Env (gp160∆CT): N160A
other: neutralisation sensitivity [3]: no change

JR-FL Env (gp160∆CT): N332Q
other: neutralisation sensitivity [3]: no change

PVO.4 Env: N197D
other: neutralisation sensitivity ([2]; control: PVO.4 parent): no change
other: neutralisation sensitivity ([1]; control: PVO.4 parent): no change
